In assay [1] the target is mouse PVRL2 endogenously expressed on B16-F10 cells (mouse) (UniProt P32507). Nature of the assay: FACS dose response on B16-F10 cells.
Assay [2] concerns the target mouse PVRL2 splice variant 2 on HEK293 cells (mouse). Briefly: FACS dose response on HEK293 OX mouse PVRL2.

Chain of mouse PVRL2 endogenously expressed on B16-F10 cells (mouse) (P32507 32-530): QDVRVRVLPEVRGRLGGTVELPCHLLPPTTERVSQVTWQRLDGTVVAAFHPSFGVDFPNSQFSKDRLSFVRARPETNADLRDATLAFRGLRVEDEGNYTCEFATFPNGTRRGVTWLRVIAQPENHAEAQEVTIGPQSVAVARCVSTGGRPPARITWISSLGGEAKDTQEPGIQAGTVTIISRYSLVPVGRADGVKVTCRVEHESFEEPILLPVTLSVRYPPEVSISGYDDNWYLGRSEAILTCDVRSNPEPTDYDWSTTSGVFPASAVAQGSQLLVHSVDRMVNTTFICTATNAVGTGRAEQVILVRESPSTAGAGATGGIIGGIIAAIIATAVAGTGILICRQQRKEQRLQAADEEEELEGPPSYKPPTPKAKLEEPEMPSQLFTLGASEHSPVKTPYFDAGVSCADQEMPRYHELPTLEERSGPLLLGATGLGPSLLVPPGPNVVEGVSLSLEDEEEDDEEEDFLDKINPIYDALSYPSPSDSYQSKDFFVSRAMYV

Regarding “PVRIG mECD-mIg fusion protein (ECD of mouse PVRIG fused to Fc of mouse IgG2a) (Fc fusion)”, the concentration at saturation of binding in assay [1] and in assay [2] was 12.5 µg/mL in each case.

Values taken from patent US20250333503A1.
